Residue numbers refer to the chain shown, from its start. Names may count otherwise. Like-named read-outs stand apart in the source and are kept apart here. Bounds are passed on as bounds.

The target of experiment [1] is EphA2, full length, R950T, expressed in U87 cells (human, UniProt P29317 24-976, R950T). The experiment in a line: co-IP.
Experiment [2] concerns the target EphB2 SAM domain penta-mutant L954K/T959R/A961P/K966R/N969Y (human). Description: ITC.
Experiment [3] has as its target T1, EphA1 SAM domain (human, UniProt P21709 906-976).
T1 sequence (looked up): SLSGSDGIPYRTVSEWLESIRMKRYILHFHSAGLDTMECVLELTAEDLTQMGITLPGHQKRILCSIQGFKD
The experiment in a line: ITC.

For experiment [4], the target named is T2, EphA2 SAM domain R950E (human, UniProt P29317 897-976, R950E).
T2 sequence (looked up): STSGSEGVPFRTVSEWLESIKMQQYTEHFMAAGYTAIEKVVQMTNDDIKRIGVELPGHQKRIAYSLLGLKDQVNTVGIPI
Description: ITC.

Experiment [5] addresses T3, EphA2 SAM domain K945L (human, UniProt P29317 897-976, K945L).
T3 sequence (looked up): T2 sequence (looked up) with K49L, E54R
The experiment in a line: ITC.

In experiment [6] the target is T4, EphA2 SAM domain K945L/Y960N (human, UniProt P29317 897-976, K945L | Y960N).
T4 sequence (looked up): T2 sequence (looked up) with K49L, E54R, Y64N
Description: ITC.

Experiment [7] deals with T5, EphA2 SAM domain Y960N (human, UniProt P29317 897-976, Y960N).
T5 sequence (looked up): T2 sequence (looked up) with E54R, Y64N
Description: ITC.

The target of experiment [8] is T6, EphA2 SAM domain (wild type) (human, UniProt P29317 897-976).
T6 sequence (looked up): T2 sequence (looked up) with E54R
Description: ITC.

In experiment [9] the target is T7, EphA2 SAM domain K956E (human, UniProt P29317 897-976, K956E).
T7 sequence (looked up): T2 sequence (looked up) with E54R, K60E
The experiment in a line: ITC.

In experiment [10] the target is T8, EphA2 SAM domain K917D (human, UniProt P29317 897-976, K917D).
T8 sequence (looked up): T2 sequence (looked up) with K21D, E54R
The experiment in a line: ITC.

Experiment [11] has as its target T9, EphA2 SAM domain K956D (human, UniProt P29317 897-976, K956D).
T9 sequence (looked up): T2 sequence (looked up) with E54R, K60D
Description: ITC.

In experiment [12] the target is T6, EphA2 SAM domain (wild type). Description: NMR titration.
The target in experiment [13] is T10, EphA2 SAM domain R950T (human, UniProt P29317 897-976, R950T).
T10 sequence (looked up): T2 sequence (looked up) with E54T
The experiment in a line: ITC.

Experiment [14] addresses T11, EphA2 SAM domain K917E (human, UniProt P29317 897-976, K917E).
T11 sequence (looked up): T2 sequence (looked up) with K21E, E54R
The experiment in a line: ITC.

The target in experiment [15] is T6, EphA2 SAM domain (wild type). Description: ITC. This is another data set of the same source.
The target is the same in experiment [16]. Description: ITC. The source holds these as a separate data set.

B1: SHIP2 (SH2-linked inositol phosphatase 2), endogenous in U87 cells (enzyme, human (endogenous in U87), UniProt O15357 1-1258, looked up)
chain: MASACGAPGPGGALGSQAPSWYHRDLSRAAAEELLARAGRDGSFLVRDSESVAGAFALCVLYQKHVHTYRILPDGEDFLAVQTSQGVPVRRFQTLGELIGLYAQPNQGLVCALLLPVEGEREPDPPDDRDASDGEDEKPPLPPRSGSTSISAPTGPSSPLPAPETPTAPAAESAPNGLSTVSHDYLKGSYGLDLEAVRGGASHLPHLTRTLATSCRRLHSEVDKVLSGLEILSKVFDQQSSPMVTRLLQQQNLPQTGEQELESLVLKLSVLKDFLSGIQKKALKALQDMSSTAPPAPQPSTRKAKTIPVQAFEVKLDVTLGDLTKIGKSQKFTLSVDVEGGRLVLLRRQRDSQEDWTTFTHDRIRQLIKSQRVQNKLGVVFEKEKDRTQRKDFIFVSARKREAFCQLLQLMKNKHSKQDEPDMISVFIGTWNMGSVPPPKNVTSWFTSKGLGKTLDEVTVTIPHDIYVFGTQENSVGDREWLDLLRGGLKELTDLDYRPIAMQSLWNIKVAVLVKPEHENRISHVSTSSVKTGIANTLGNKGAVGVSFMFNGTSFGFVNCHLTSGNEKTARRNQNYLDILRLLSLGDRQLNAFDISLRFTHLFWFGDLNYRLDMDIQEILNYISRKEFEPLLRVDQLNLEREKHKVFLRFSEEEISFPPTYRYERGSRDTYAWHKQKPTGVRTNVPSWCDRILWKSYPETHIICNSYGCTDDIVTSDHSPVFGTFEVGVTSQFISKKGLSKTSDQAYIEFESIEAIVKTASRTKFFIEFYSTCLEEYKKSFENDAQSSDNINFLKVQWSSRQLPTLKPILADIEYLQDQHLLLTVKSMDGYESYGECVVALKSMIGSTAQQFLTFLSHRGEETGNIRGSMKVRVPTERLGTRERLYEWISIDKDEAGAKSKAPSVSRGSQEPRSGSRKPAFTEASCPLSRLFEEPEKPPPTGRPPAPPRAAPREEPLTPRLKPEGAPEPEGVAAPPPKNSFNNPAYYVLEGVPHQLLPPEPPSPARAPVPSATKNKVAITVPAPQLGHHRHPRVGEGSSSDEESGGTLPPPDFPPPPLPDSAIFLPPSLDPLPGPVVRGRGGAEARGPPPPKAHPRPPLPPGPSPASTFLGEVASGDDRSCSVLQMAKTLSEVDYAPAGPARSALLPGPLELQPPRGLPSDYGRPLSFPPPRIRESIQEDLAEEAPCLQGGRASGLGEAGMSAWLRAIGLERYEEGLVHNGWDDLEFLSDITEEDLEEAGVQDPAHKRLLLDTLQLSK
For the molecule B1, in [1], the “fold binding against wild type EphA2” value was roughly 2 fold.

B2: SHIP2 SAM domain (wild type) (domain or fragment, human, UniProt O15357 1192-1258, looked up)
chain: RASGLGEAGMSAWLRAIGLERYEEGLVHNGWDDLEFLSDITEEDLEEAGVQDPAHKRLLLDTLQLSK
As to B2, the Kd in experiment [2] worked out at 7.6 µM; in experiment [3] it was 3.8 ± 0.4 µM; in experiment [4] it was 1.7 ± 0.3 µM; in experiment [5] it was 1.3 ± 0.2 µM; in experiment [6] it was 1.6 ± 0.6 µM; in experiment [7] it was 3.1 ± 0.4 µM. In addition, the dissociation constant Kd in experiment [8] was 5.2 ± 1.2 µM; in experiment [9], greater than 50 µM; in experiment [10], 9.1 ± 5.7 µM; in experiment [11] it was greater than 50 µM; in experiment [12], roughly 10 µM. Moreover, the dH is -3.6 kcal/mol in experiment [3]; -2.4 kcal/mol in experiment [4]; -2.1 kcal/mol in experiment [5]; -2 kcal/mol in experiment [6]; -3 kcal/mol in experiment [7]; -2.5 kcal/mol in experiment [8]. The same molecule had a dH in [10] of -0.85 kcal/mol. The “fold enhancement of the interaction against the wild-type pair” value in [13] was roughly 4 fold.

B3: SHIP2 SAM domain E1226K (domain or fragment, human, UniProt O15357 1192-1258, looked up)
chain: B2 chain with E35K
In experiment [14], B3 registered a Kd of 15.4 ± 1.9 µM and a dH of -2 kcal/mol.

B4: SHIP2 SAM domain D1235K (domain or fragment, human, UniProt O15357 1192-1258, looked up)
chain: B2 chain with D44K
In [11], B4 registered a Kd of 7 ± 3 µM and a dH of -0.8 kcal/mol.

B5: SHIP2 SAM domain H1219S (domain or fragment, human, UniProt O15357 1192-1258, looked up)
chain: B2 chain with H28S
B5: in experiment [15], the “fold enhancement of the interaction against the wild-type pair” value is roughly 4 fold.

B6: SHIP2 SAM domain H1219R (domain or fragment, human, UniProt O15357 1192-1258, looked up)
chain: B2 chain with H28R
In [4], B6 returned a Kd of 1.3 ± 0.1 µM and a dH of -5 kcal/mol.

B7: SHIP2 SAM domain H1219E (domain or fragment, human, UniProt O15357 1192-1258, looked up)
chain: B2 chain with H28E
In experiment [16], B7 displayed a Kd of 4 ± 0.4 µM and a dH of -5.5 kcal/mol. In experiment [4], this molecule registered a Kd of 11.2 ± 2.7 µM and a dH of -7.5 kcal/mol.

B8: SHIP2 SAM domain D1224K (domain or fragment, human, UniProt O15357 1192-1258, looked up)
chain: B2 chain with D33K
On to B8, for which, in experiment [10], the Kd was 10 ± 2 µM and the dH was -2.5 kcal/mol.

Source of the values: article PMC3516615 (Structure (London, England : 1993), 2012).
